Data: a protein production outcome set (Wang et al. 2014)

Assay: label from the status in PepcDB records

| Sequence | protein production |
| --- | --- |
| MCLALPAQIDQVLEDNKAIVNLGGITKEISTVLLEQVSEGEYVIIHAGFALTKLDEREANKTLSLFAHMLKDG | not failed |
| MCNETWQSRAEEYIDDSRRLGYALTTTSAYLLSFARFVDQRGHSGALTSDIILDWAQSTDSKKPTTWTKRLINIRRFISHCSRVDGKSEVPRVDVFGRPKGRPTPHIYTELEISELLAAARELPGTLPSATYETLFGLLASTGLRLSEALHLRCSDVDLRSGRLIVRQGKLGKSRLVPLHATVCEVLSRYLGVRQQLPLTSESYFFVSQTGGLLPRRTVEGVFIRLRTKLGWAPRGNWRAPRIHDLRHTFICRRVTQWHKEGADIDNAMLYVSTYVGHVAVTYTYWYLTGIPELMTVVGQRFEAFAESARGAENAE | failed |
| MCPEFQRKAAGAPRMGAMLARCVLTAALALQAAAAARAVEIEIGVASRGVVDGLEFVQFSADERTMATTHWGNVVHLWDLKTLRVRSSVSVANRDFDFDLSPDGRALAVWNEEGKGEIELYDTDNGQPARALPAPRLPQGESRRGRSLVYRDDGTLEFVSHGWIGGHARKAYLLAVPAGQPRAAETPLPALVNSVAFRKSAVMDQGRLLLAGVDGADDELAIMDIASGRMLAREPGFRIASYAADARRAVFVEADGKQRILAFDFSSRSLSTLPRWTGSGKFQPYRFVAGTRFLVLAPDEPDASTRRAAPGIYDLQTRRLHRLPPDADPGSIDVWGATASYVLCNPDHTACQAEVADLAISRKLGTFAVQPSADFRTWISPSGSMVVVGGADDGTMMVWSVKEQRVIGPN | failed |
| MCQMPCQFSWPYTHYFTQTKNKEKILNKLIVFTGGPGAGKTSVIEQLKTQGFICAPETGRHVIQMQVANHGSALPWNDKQAFRDEMTKEEVSNYRSFNVRQGDVFFDRSIVDVYGYSKLEQLPISHELITHCQTLRYHSQVFIFPPWASIFSNDEERKQDFSEAVATYQQMVDAYHKFGYQLIEVPKMSVEDRVAFILGSVIELEHHHHHH | not failed |
| MCQSNQIVSHFLSHRNVTNELAEKISKDHYSYKPAETSMSAEELVKHILTSFHLFANVIKEGNASPFQNKQEETETDLNVLAKTYTEKTVAILEQLTEEQLDREIDLTSAFGRKVTGRALLQLAMEHEIHHKGNLFVYVREMGHTELPFYQQRM | not failed |
| MCRGPLGSYESLTRPSFAFIVISPSATLLTHAPGSQEPHVSRHNRRRSTLHKRATVFGGGTVAVAAVVATVNIASADQVSPTPRTASKADHAVFVQGNELAGNTIHVFRRGDDGKLTAAGKYATGGKGGDQVDAPTDSLASQGSLVYDRRSGRLLALNAGSGTLTSYAVHGQKLTDRQTVPTGGDFPVGIAVSGDLAYVMNAGGAGSVQGFRITTMGLKPLSGSLRTLGLKNEKVPLFSSSPGQAAFTPDGRNLVVTTKSANTVEVFPIGRDGRPAHKPVVNKSAGMVPFAIAFDKTGRMLVAEAAESTVSTYKVRRNGELQVLQKPLPNGQDTLCWLERAGDFFYGGNTGNSTVSGYRMDARGRLALTNEAGIAAAPSAKSQGVIDIAVAADKFVYVQNATSGTVDGFRVGRTGALTKVTTVTDLPAFAESGMEGIAAV | failed |
| MCSNNNTSSGSYGELQLHDESSGSCRKKQKKDKVRRRGPGVAELEKIRLQEEYKPPLSSSPSLPNIDHHHHTLFAPASSVYDLVMTSPNFSFPEKLASTLPVFPISPDATQNRSMGITPVQETGTTTSNPIAIDSPTSIPRHYPRFIPLGLQYEQQQQKLKDLDETMQWRSKKPFYSFIPSGDPSNDDQEQRPCDLFGSAADHGIDLNLKL | failed |
| MCSTNKNLACCKGDNVFDGQINGNESYPQVVNKQLPPKVLEPIIQNKIVEIPKEVYLEKIVEVPQIKTVERIVEQIRPVIKYKNVYKPKIVYVEKVKNVDKIIYQEKIVEVPQIKTVEKIVEVPVYVNRERIITVPRYMVVEKVIPVLKTSKRESIMEVPEVNCPHIDISKEVEDKEEIPINELKENQTISLADEKEIQILNDLTSQKVDSNATINMEGEQDTTVDTITQENFCGTVSCNFLPNYPNFSKIGNPLCKGGPEKEKRFSSISIYKSKDSGFPSIRIAKTPQMFQRNLYCSYA | failed |
| MCTFCSIINRELEGYFVYEDEKFAAILDKYPVSLGHTLVIPKKHFENYLEADEDTLAELAKVVKLVSLGIKDAVKADGLRLLTNIGRSAGQVIFHLHVHIIPTWEGDYPDIFKSFKPRKEQEKEYYELLQKIIRESIENLKRKIGDYKWG | not failed |
| MCVRLENENFKAELSESGAELTSLKSKNTDNEYIWTANSSYWGRHAPILFPIVGKVKDNKYRIADKVYNLSQHGFARDMEFEVEDNASDRAVFKLVWNDETLEKYPYKFELRVIYVLKDSTVDVTYNVKNVDDKDIFFSIGAHPGFNCPVIGKQSENDELQFEDYYIEFEKRETTGVVKLNSSNLLSRNTSPFLYASNILNLSEKLFKQGALILKDLDSTSISLKNDKNTTSVTVSFEGFPYVGLWSKPEGAPFVCIEPWFGHADYEDFNGDFREKEDGLKLEVGKEFECTYSITIGELEHHHHHH | not failed |
| MCYTGDMEDVKHPRLTRRGRIYWFRAKVPADLRSHYAPKTEIIYSLKTSDPREALVRVRIASVKADQEFEVARRIPKEEVRTSLSDDEAERLVAIYYQVRLEEDEEIRIGGKQEADLYLGVKAQLEALGIGHANYTNEEAVAEYGLSQREYQKNQETLEFMEPLYREALSTGNTEIIHDELDDILEANSIKLDRTSSQYRKLAFSILKATVKVLDVEKRRNSGEPIDTPPEPPPLFKPAVTAVPANSLRLSEVFERWKVERKPAKRSLMEWDTAIRRFTALYGDKPVESITKAEVVEFKDSLLQQGKAAATVLKQVGAIKSTLQYAVDNGKLSVNPATGVKVAGKRASEVRRLPYDAEDLKAIFSSPVFTCGDRPLAGSGEASFWLPLLALFTGARLNEIGQILVSDVRELDGIHYLDLNTEGEGKSLKNEGSRRKVPLHPEIIRLGFLDYVRKQGESLGSDSRVFDKLEPNSNGVLTANFSKWWGRYARENGIAKGQKVFHSFRHSFKDACRESSLPQDIHDALTGHSPNNVGGRYGQGFTVRRLGEEMAKLSYPGLDLSGLMKP | failed |
| MDADHLQRIFDEAVQAHGEGRLDEAEAGFRAVLEVLPHEGEALFGLGLTLMGLRRFSEAIPPLKAAAAEPGAEPVRFLCLAQGLYMTGAFAEAAETFAAVAHQDGFNDGARLTWARSAAYAALDDTDADSALALYGQIAGPVAEDLDTVAREGFSTLVAFERLAAARKLGQWLEARAPDDAIRAHELRVLTDPQIDRAPPAYVEALFDAFAERFDHQLLDNLEYQTPTLLAEMIGVADRRFTHMLDLGCGTGLAGPPLRARVARLTGVDLSTAMLAKAAERGGYDALVHAEAVAFLRETPDRFDLIVAADVFSYLGDLGDILAAAAGALSDDGLLAFSVEQGETWWRLLPSARYAHGDDYVRAAGAGVGLEVIQHRQTPLRRQADAAIPGGLYVLRKIRAA | failed |
| MDADNTAHLIYLSLLGAALVFWFISHNRASLGKTLQMALAWVFIFVGVIAVVGLWGDIRSTVAGTPRISVSENRVEIPRSPDGHYYATLIIEDKPLRFLVDTGASQVVLSHADAERLGIDTSALNYFGRAYTANGEVRTAPVKLGRVQLGGFTDQGVTAWVNEGEMSESLLGMDYLQRFRSIEIAGGTLVLAR | failed |
| MDALLGPPESSWEGADRSDADLRWARGGREARDRRDQLLPALHALNDRVGWISEGALDYVCRRLTVPPAEAYGVATFYAMFSVRPRPATVLHVCTDLACTAAGASRLCAAVESRLGPESGVKLERSPCLGLCERAPATLVIRAGESARPAQEDTPARPAFEDEAVQAEGGSGGAAPGDGGGTSRSSEAESGGGKGRRGRNTLHATAICAPATPDRAIAAATAPESAPTEPAPEAAVPQAGDPTLTLLHRIGTTDPTSLDDYRAHGGYTALRRAFALGPAAVIREVTDAGLVGRGGAAFPTGRKWQATAAQPDHPHYLVCNADESEPGTFKDRVLMEGDPYALVEAMTIAAYATGAHRGYLYLRGEYPRALARLTHAIEQARTRGLLGDDVLGQGYAFDIEIRRGAGAYICGEETALFNSIEGRRGEPRSKPPFPVEKGLFGKPTVENNVETLVNVLPILTMGAEAYAAIGTPTSTGPKLFCVSGTVARPGVYELPFGATLGELLALAGVRDNLRAVLLGGAAGGFVRPDELDIPLTFEGTREAGTTLGSGVVMAFDDTVPLPRLLLRIAEFFRDESCGQCVPCRVGTVRQEEALHRIADRTGAAAADDIALLREVGRAMRDASICGLGQTAWNAVESAIDRLGAYE | failed |
| MDALQLLTWSLILYLFASLASLFLLGLDRLAIKLSGITSLVGGVIGIISGITQLHAGVTLVARFAPPFEFADLTLRMDSLSAFMVLVISLLVVVCSLYSLTYMREYEGKGAAAMGFFMNIFIASMVALLVMDNAFWFIVLFEMMSLSSWFLVIARQDKTSINAGMLYFFIAHAGSVLIMIAFLLMGRESGSLDFASFRTLSLSPGLASAVFLLAFFGFGAKAGMMPLHSWLPRAHPAAPSHASALMSGVMVKIGIFGILKVAMDLLAQTGLPLWWGILVMAIGAISALLGVLYALAEQDIKRLLAWSTVENVGIILLAVGVAMVGLSLHDPLLTVVGLLGALFHLLNHALFKGLLFLGAGAIISRLHTHDMEKMGALAKRMPWTAAACLIGCLAISAIPPLNGFISEWYTWQSLFSLSRVEAVALQLAGPIAMVMLAVTGGLAVMCFVKMYGITFCGAPRSTHAEEAQEVPNTMIVAMLLLAALCVLIALSASWLAPKIMHIAHAFTNTPPATVASGIALVPGTFHTQVTPSLLLLLLLAMPLLPGLYWLWCRSRRAAFRRTGDAWACGYGWENAMAPSGNGVMQPLRVVFSALFRLRQQLDPTLRLNKGLAHVTARAQSTEPFWDERVIRPIVSATQRLAKEIQHLQSGDFRLYCLYVVAALVVLLIAIAV | failed |
| MDALVSTKANSIAYQRSTVIIPAYNEEKRLMPVLYELCEYIRSNSLEWKVMVSIDGDDGTESNVKIMMQEYSFLSYSKGKGRGGKGAAIKRAITSATGEFVILMDADGSVPLKEIVKALDLTNYYDLIIFDRYSNRGNRIPFIRRFPSRGFNKLVRIFLGLKINDTQCGYKIIKREYAQRAFNKITISNAFFDVALLYYLKKERAKYIEIPVEYNYDRNSKFHVVELVLGEGISLIAFRIRNSRFYKYVPEKLISLYYRKFRWILEHHHHHH | not failed |
| MDASDDSLIGRITEVRAGRFAARLLSDEEGFRNEVSLGDEVQHPGQVGTYVSIRNGTFRILALVREVSGGAAGSAAGSAMQLVPLGEFNDKGAFSRGVRRYPVPGAEVHAASPQEINAVFARTRNLRFNPGYLPNHPATGVYLDPSALCSRHFAILGQSGAGKSWTVASLLQRMLASAPRAHIILLDLHGEYCWRGADGVLHSTFPPMATRAMDARELEIPYWLMSFAELVDLLIERDDPAASIQTAFLRETVFELKRRSARELGLEGVSIDAPVYFSLQEVYERFKEANEHRTDFGKTKGPLFGQFDDFLLKLGSRLHDVRYDFLLNPARRTRSESLPDLLRDFVGLGEPRCQISVIDLSPVPFDVRPTVSAQIGRLAFEFNYWNLDRREFPILLVCEEAHTYIPRERATQYEGTRKSMERIAKEGRKYGVGLAVVSQRPHELSETVLSQCGSYICLRISNPDDQAYVRKLVPEGEADLVDVLTALGRGEALILGEATPLPVRCQIFRPDPPPNSNDVDFHKAWNADTANLDIGAIVRRWWNQGR | failed |
| MDAYSWLLAVIILLPLISASVPIAASVRWKNVGWAIAAVVVSATFAMSVALAWMVPRAEDRLLAHQLGGVEVPIGIELFADEFSVIVLLLVLAVCLGVLVFTRIGGPRGNAFYSGFLLLVGGMMGILLTGDLFNMYVFLEIMAISSYALVSASKYRWSTYAAFKYLLVGTVGAGFYLLGVALVLASTGTLTMRLLPELLAAVGYTDPVVVAAFILMAVGLAIKIALFPVHTWLADAHASAPDGISAVISALVPAVAVYAFARVLFTVYTLDFIAANPVIGNLLLVAALFSLFAGSFFALLQDHIKLVLAYSTVSQFGLIFVGIAIANETAVFGAILQIFGHGVVKASLFVLAGMFALRFGGIRTLKEYSGVAERAPIMAGAFAVLGIAMIGLPPTVGFAGKWYIALGAFEAGLWQVSLLVLGSTLLSAGYILPFINRIYFHPFEGEDVDAAKVTTGMLIAIIIGAGIGLLLGFASAEIQAAVSTAVERLVA | failed |
